According to patent US7432061B2, “Assays for measuring matrix metalloproteinase activities” (BioZyme, Inc., priority 2002, dated 2008):

Assays:
[1] = target: collagenase 3 (Homo sapiens, UniProt P45452); assay: Inhibition with type II collagen, FlSub3 cleavage; format: biochemical; conditions: for Average Percent Inhibition from 1.1 to 6.6 Hours / Average Percent Inhibition: COL3(.013 nM)
Protocol: (§1) In a 96 well plate, collagenase 3 (0.013 nM), collagenase 1 (1.25 nM), stromelysin 1 (0.8 nM), gelatinase A (0.025 nM), or gelatinase B (0.008 nM) were reacted with 20 uM FlSub3 in standard assay buffer in the presence of varying concentrations of bovine type II collagen (0.18-44 ug/ml). The type II collagen, a 1 mg/ml stock in 0.5M acetic acid, was transferred into assay buffer by passing the material through a biospin P6 column from Amersham. The reaction was initiated by addition of substrate to enzyme containing either buffer or an appropriate amount of type II collagen. Data points were taken every 15 min over a period of 15 hours using an excitation and emission wavelength of 350 and 485 nm respectively. The usable data (1-6 hours), was taken and the percent inhibition by type II collagen was calculated for each enzyme and plotted as a function of inhibitor concentration and time in the assay. It should be noted that the percent inhibition varies with time as the bovine substrate is consumed during the reaction course.

[2] = target: stromelysin 1 (Homo sapiens, UniProt P08254); assay: Inhibition with type II collagen, FlSub3 cleavage; format: biochemical; conditions: for Improvement In Selectivity (Strom1 v Col-3): 44 ug/ml Type II Collagen vs no Type II Collagen, FlSb3; for Average Percent Inhibition from 1.1 to 6.6 Hours / Average Percent Inhibition: STR1(.80 nM)
Chain of stromelysin 1 (P08254 100-477): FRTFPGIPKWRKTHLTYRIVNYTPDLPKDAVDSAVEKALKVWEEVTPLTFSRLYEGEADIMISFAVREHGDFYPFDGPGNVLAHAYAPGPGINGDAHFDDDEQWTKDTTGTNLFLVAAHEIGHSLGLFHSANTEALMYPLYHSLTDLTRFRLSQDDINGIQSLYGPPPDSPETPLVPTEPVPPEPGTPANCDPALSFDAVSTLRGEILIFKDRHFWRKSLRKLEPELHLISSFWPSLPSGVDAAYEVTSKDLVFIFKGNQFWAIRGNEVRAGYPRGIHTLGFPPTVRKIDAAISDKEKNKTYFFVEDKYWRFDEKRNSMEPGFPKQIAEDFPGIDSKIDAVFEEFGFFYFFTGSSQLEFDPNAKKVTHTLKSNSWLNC
Protocol: as §1

[3] = TypeIICOL(1.6 ug/ul), FISb3, hour 0.10 to 1.10
[4] = TypeIICOL(1.6 ug/ul), FISb3, hour 1.10 to 2.10
[5] = TypeIICOL(1.6 ug/ul), FISb3, hour 1.10 to 6.60
[6] = TypeIICOL(1.6 ug/ul), FISb3, hour 2.10 to 3.10
[7] = TypeIICOL(1.6 ug/ul), FISb3, hour 3.10 to 4.10
[8] = TypeIICOL(1.6 ug/ul), FISb3, hour 4.10 to 5.10
[9] = TypeIICOL(1.6 ug/ul), FISb3, hour 5.10 to 6.10
[10] = TypeIICOL(4.9 ug/ul), FISb3, hour 0.10 to 1.10
[11] = TypeIICOL(4.9 ug/ul), FISb3, hour 1.10 to 2.10
[12] = TypeIICOL(4.9 ug/ul), FISb3, hour 1.10 to 6.60
[13] = TypeIICOL(4.9 ug/ul), FISb3, hour 2.10 to 3.10
[14] = TypeIICOL(4.9 ug/ul), FISb3, hour 3.10 to 4.10
[15] = TypeIICOL(4.9 ug/ul), FISb3, hour 4.10 to 5.10
[16] = TypeIICOL(4.9 ug/ul), FISb3, hour 5.10 to 6.10
[17] = TypeIICOL(15 ug/ul), FISb3, hour 0.10 to 1.10
[18] = TypeIICOL(15 ug/ul), FISb3, hour 1.10 to 2.10
[19] = TypeIICOL(15 ug/ul), FISb3, hour 1.10 to 6.60
[20] = TypeIICOL(15 ug/ul), FISb3, hour 2.10 to 3.10
[21] = TypeIICOL(15 ug/ul), FISb3, hour 3.10 to 4.10
[22] = TypeIICOL(15 ug/ul), FISb3, hour 4.10 to 5.10
[23] = TypeIICOL(15 ug/ul), FISb3, hour 5.10 to 6.10
[24] = TypeIICOL(44 ug/ul), FISb3, hour 0.10 to 1.10
[25] = TypeIICOL(44 ug/ul), FISb3, hour 1.10 to 2.10
[26] = TypeIICOL(44 ug/ul), FISb3, hour 1.10 to 6.60
[27] = TypeIICOL(44 ug/ul), FISb3, hour 2.10 to 3.10
[28] = TypeIICOL(44 ug/ul), FISb3, hour 3.10 to 4.10
[29] = TypeIICOL(44 ug/ul), FISb3, hour 4.10 to 5.10
[30] = TypeIICOL(44 ug/ul), FISb3, hour 5.10 to 6.10
[31] = TypeIICOL(.18 ug/ul), FISb3, hour 0.10 to 1.10
[32] = TypeIICOL(.18 ug/ul), FISb3, hour 1.10 to 2.10
[33] = TypeIICOL(.18 ug/ul), FISb3, hour 1.10 to 6.60
[34] = TypeIICOL(.18 ug/ul), FISb3, hour 2.10 to 3.10
[35] = TypeIICOL(.18 ug/ul), FISb3, hour 3.10 to 4.10
[36] = TypeIICOL(.18 ug/ul), FISb3, hour 4.10 to 5.10
[37] = TypeIICOL(.18 ug/ul), FISb3, hour 5.10 to 6.10

Average Percent Inhibition from 1.1 to 6.6 Hours ([1]; Type II Collagen 0.18 ug/ml): −8%
Average Percent Inhibition from 1.1 to 6.6 Hours ([1]; Type II Collagen 0.54 ug/ml): −11%
Average Percent Inhibition from 1.1 to 6.6 Hours ([1]; Type II Collagen 1.63 ug/ml): −11%
Average Percent Inhibition from 1.1 to 6.6 Hours ([1]; Type II Collagen 4.89 ug/ml): −28%
Average Percent Inhibition from 1.1 to 6.6 Hours ([1]; Type II Collagen 14.67 ug/ml): −44%
Average Percent Inhibition from 1.1 to 6.6 Hours ([1]; Type II Collagen 44.00 ug/ml): −53%
Average Percent Inhibition [1, 3]: 16%
Average Percent Inhibition [1, 4]: −4%
Average Percent Inhibition [1, 5]: −11%
Average Percent Inhibition [1, 6]: −15%
Average Percent Inhibition [1, 7]: −13%
Average Percent Inhibition [1, 8]: −12%
Average Percent Inhibition [1, 9]: −11%
Average Percent Inhibition [1, 10]: 8%
Average Percent Inhibition [1, 11]: −31%
Average Percent Inhibition [1, 12]: −28%
Average Percent Inhibition [1, 13]: −38%
Average Percent Inhibition [1, 14]: −31%
Average Percent Inhibition [1, 15]: −25%
Average Percent Inhibition [1, 16]: −21%
Average Percent Inhibition [1, 17]: 6%
Average Percent Inhibition [1, 18]: −48%
Average Percent Inhibition [1, 19]: −44%
Average Percent Inhibition [1, 20]: −59%
Average Percent Inhibition [1, 21]: −50%
Average Percent Inhibition [1, 22]: −41%
Average Percent Inhibition [1, 23]: −34%
Average Percent Inhibition [1, 24]: 2%
Average Percent Inhibition [1, 25]: −55%
Average Percent Inhibition [1, 26]: −53%
Average Percent Inhibition [1, 27]: −71%
Average Percent Inhibition [1, 28]: −60%
Average Percent Inhibition [1, 29]: −49%
Average Percent Inhibition [1, 30]: −41%
Average Percent Inhibition [1, 31]: 6%
Average Percent Inhibition [1, 32]: −9%
Average Percent Inhibition [1, 33]: −8%
Average Percent Inhibition [1, 34]: −10%
Average Percent Inhibition [1, 35]: −8%
Average Percent Inhibition [1, 36]: −7%
Average Percent Inhibition [1, 37]: −6%
Average Percent Inhibition ([1]; TypeIICOL(.55 ug/ul), FISb3, hour 0.10 to 1.10): 14%
Average Percent Inhibition ([1]; TypeIICOL(.55 ug/ul), FISb3, hour 1.10 to 2.10): −11%
Average Percent Inhibition ([1]; TypeIICOL(.55 ug/ul), FISb3, hour 1.10 to 6.60): −11%
Average Percent Inhibition ([1]; TypeIICOL(.55 ug/ul), FISb3, hour 2.10 to 3.10): −15%
Average Percent Inhibition ([1]; TypeIICOL(.55 ug/ul), FISb3, hour 3.10 to 4.10): −12%
Average Percent Inhibition ([1]; TypeIICOL(.55 ug/ul), FISb3, hour 4.10 to 5.10): −10%
Average Percent Inhibition ([1]; TypeIICOL(.55 ug/ul), FISb3, hour 5.10 to 6.10): −10%
inhibition of collagenase 3 by type II collagen ([1]; FlSub3): not observed
increase in specificity of collagenase 3 (factor) ([1]; highest concentration of collagen, FlSb3): 2.5
effect on collagenase 3 at the highest concentrations of type II collagen ([1]; highest concentrations, FlSub3): activation, rather than inhibition
Improvement In Selectivity (Strom1 v Col-3) [2]: 2.5 fold
Improvement In Selectivity (Strom1 v Col-3) ([2]; listed as collagen): four
Average Percent Inhibition from 1.1 to 6.6 Hours ([2]; Type II Collagen 0.18 ug/ml): 15%
Average Percent Inhibition from 1.1 to 6.6 Hours ([2]; Type II Collagen 0.54 ug/ml): 13%
Average Percent Inhibition from 1.1 to 6.6 Hours ([2]; Type II Collagen 1.63 ug/ml): 19%
Average Percent Inhibition from 1.1 to 6.6 Hours ([2]; Type II Collagen 4.89 ug/ml): 12%
Average Percent Inhibition from 1.1 to 6.6 Hours ([2]; Type II Collagen 14.67 ug/ml): 18%
Average Percent Inhibition from 1.1 to 6.6 Hours ([2]; Type II Collagen 44.00 ug/ml): 19%
Average Percent Inhibition [2, 3]: −10%
Average Percent Inhibition [2, 4]: 24%
Average Percent Inhibition [2, 5]: 19%
Average Percent Inhibition [2, 6]: 22%
Average Percent Inhibition [2, 7]: 18%
Average Percent Inhibition [2, 8]: 17%
Average Percent Inhibition [2, 9]: 16%
Average Percent Inhibition [2, 10]: 50%
Average Percent Inhibition [2, 11]: 23%
Average Percent Inhibition [2, 12]: 12%
Average Percent Inhibition [2, 13]: 11%
Average Percent Inhibition [2, 14]: 8%
Average Percent Inhibition [2, 15]: 8%
Average Percent Inhibition [2, 16]: 8%
Average Percent Inhibition [2, 17]: 57%
Average Percent Inhibition [2, 18]: 28%
Average Percent Inhibition [2, 19]: 18%
Average Percent Inhibition [2, 20]: 18%
Average Percent Inhibition [2, 21]: 14%
Average Percent Inhibition [2, 22]: 13%
Average Percent Inhibition [2, 23]: 14%
Average Percent Inhibition [2, 24]: 62%
Average Percent Inhibition [2, 25]: 32%
Average Percent Inhibition [2, 26]: 19%
Average Percent Inhibition [2, 27]: 18%
Average Percent Inhibition [2, 28]: 14%
Average Percent Inhibition [2, 29]: 14%
Average Percent Inhibition [2, 30]: 14%
Average Percent Inhibition [2, 31]: 22%
Average Percent Inhibition [2, 32]: 22%
Average Percent Inhibition [2, 33]: 15%
Average Percent Inhibition [2, 34]: 15%
Average Percent Inhibition [2, 35]: 12%
Average Percent Inhibition [2, 36]: 12%
Average Percent Inhibition [2, 37]: 12%
Average Percent Inhibition ([2]; TypeIICOL(.55 ug/ul), FLSb3, hour 0.10 to 1.10): 43%
Average Percent Inhibition ([2]; TypeIICOL(.55 ug/ul), FLSb3, hour 1.10 to 2.10): 26%
Average Percent Inhibition ([2]; TypeIICOL(.55 ug/ul), FLSb3, hour 1.10 to 6.60): 13%
Average Percent Inhibition ([2]; TypeIICOL(.55 ug/ul), FLSb3, hour 2.10 to 3.10): 14%
Average Percent Inhibition ([2]; TypeIICOL(.55 ug/ul), FLSb3, hour 3.10 to 4.10): 10%
Average Percent Inhibition ([2]; TypeIICOL(.55 ug/ul), FLSb3, hour 4.10 to 5.10): 8%
Average Percent Inhibition ([2]; TypeIICOL(.55 ug/ul), FLSb3, hour 5.10 to 6.10): 8%
Substance: Type II Collagen: bovine type II collagen, full length MMP substrate used as inhibitor of gelatinases
